Experimental findings from US20190016812A1 (AbbVie / Abbott, published 2019) are described below.

The labels stand for the following.
B1: SC113.46 (antibody, V domains shown)
VH: QIQLVQSGPELKKPGETVKISCKASGYSFTNYGMNWVKQTPRKGLKWVGWINTYTGETTYADDFKGRFAFSLETSASTAYLQINNLKNEDMATYFCARIYGYGWFAYWGQGTLVTVSA
VL: DIQMTQSPSSLSASLGERVSLTCRASQEISGYLSWLQQKPDGTIKRLIYAASTLDSGAPKRFSGSRSGSDYSLIISSLESEDFADYYCLQYSSYPYTFGGGTKLEIK
notes: mouse antibody, isotype N/A
B2: SC113.36 (antibody, mouse IgG1, V domains shown)
VH: QVQLKESGPDLVAPSQSLSITCTVSGFSLTSYGVHWVRQPPGKGLEWLGVIWAGGFTNYNSALMSRLSISKDNSKSQVFLKMSSLQTDDTAMYYCVREKDYRYSHYFDYWGQGTTLTVSS
VL: DIVMSQSPSSLAVSVGEKVTLSCKSSLSLLYSSNQENYLAWYQQKPGQSPKLLIYWASTRESGVPDRFTGSGSGTDFTLTISSVKAEDLAVYYCQQYYSYPRTFGGGTKLEIK
notes: mouse IgG1
B3: SC113.61 (antibody, V domains shown)
VH: EVQLVESGGDLVKPGGSLKLSCAASGFTFSNYGMSWVRQTPDKRLEWVATISNGGISTYYPDSVKGRFTISRDNAKNTLYLQMNSLKSEDTAMYYCVRPGRGYFDYWGQGTTLTVSS
VL: DIVMTQAAPSVPVTPGESVSISCRSNKSLLHSDGNTYLYWFLQRPGQSPQLLIYRMSNLASGVPDRFSGSGSGTAFTLRISRVEAEDVGVYYCMQHLEYPWTFGGGTKLEIK
modifications: MSD SULFO-TAG NHS Ester label on amines (sites not given)
notes: Murine hybridoma antibody, sulfo-tagged for use as detection antibody; The label may sit on either chain; also called SC113.61 detection antibody
B4: SC113.70 (antibody, mouse IgG2b, V domains shown)
VH: DVQLQESGPDLVKPSQSLSLTCTVTGYSITSGYTWHWIRQFPGNKLEWMGYIIYSGGTNYNPSLKSRISITRDTSKNQFFLQLNSVTPEDTATYYCASLLRPLDYWGQGTTLTVSS
VL: B3 VL with N26S, D33N, N35D, Y37F, W101F, G105A, I111L
notes: mouse IgG2b
B5: SC113.57 (antibody, V domains shown)
VH: QVQLKQSGPGLVPPSQSLSISCTVSGFSLTTYGVHWVRQSPGKGLEWLGVIWSGGTTDDNAAFISRVSITKDNSKSQVFFKMNSLQADDTAIYYCAKNSYYGNLHYYTMDYWGQGTSVTVSS
VL: not shown
notes: Murine hybridoma antibody with kappa light chain; also called SC113.57 capture antibody
B6: SC113.51 (antibody, mouse IgG2a, V domains shown)
VH: B2 VH with T21I, P40S, F56L, S83N, H105Y
VL: B2 VL
notes: mouse IgG2a
B7: huSC113.57 (antibody, V domains shown)
VH: QVTLKESGPVLVKPTETLTLTCTVSGFSLSTYGVHWIRQPPGKALEWLAVIWSGGTTDDNAAFISRVTISKDNSKSQVVLTMTNMDPVDTATYYCARNSYYGNLHYYTMDYWGQGTTVTVSS
VL: EIVLTQSPATLSLSPGERATLSCRASESVDSYGISFLNWYQQKPGQAPRLLIYAASNQGSGIPARFSGSGSGTDFTLTISSLEPEDFAVYYCQQSKEVPWTFGGGTKVEIK
notes: also called hSC113.57 (humanized SC113.57)
B8: SC113.219 (antibody, V domains shown)
VH: QVQLKQSGAELVRPGASVKLSCRASGYTFTDFYINWVKQRPGQGLEWIARIYPGSGNTHYNENFKGKATLTAEKSSSTAYMQLSSLTSEDSAVYFCAREVWDAMDHWGQGTSVTVSS
VL: SIVMTQSPKSMSISVGERVTLSCKASENVGTYVSWYQQKPEQSPKLLIYGASNRYTGVPDRFTGSGSSAEFTLTISSVQAEDLADYYCGQSSSFPIFTFGTGAKLEIK
B9: SC113.201 (antibody, V domains shown)
VH: QVQLKQSGPSLVQPSQSLSITCTVSGFSLTNYGVHWVRQSPGKGLEWLGVIWRGGGTDSNAAFMSRLTITKDNSKSQVFFKMSSLQADDTAIYYCAKNTRYDARGYYAMDYWGQGTSVTVSS
VL: not shown
B10: SC113.153 (antibody, V domains shown)
VH: QVQLKQSGPGLVQPSQSLSITCTVSGFSLTSYGVHWVRQSPGKGLEWLGVIWSGGSTDDNAAFISRLSISKDNSKSQVFFKMNSLQADDTAIYYCARNYYYDGRYYAMDYWGQGTSVTVSS
VL: DIVLTQSPASLAVSLGQRATISCRASESVEYYGTSLMQWYQQKPGQPPKLLIYVASNVESGVPVRFSGSGSGTDFSLNIHPVEEDDIAMYFCQQSRKVPWTFGGGTKLEIK
notes: Murine hybridoma antibody
B11: SC113.148 (antibody, V domains shown)
VH: B10 VH with L11P, L67M, S70T, F80L, I92K, D102E, A107V, T118I
VL: B10 VL with A9V, V54A, V64A
B12: SC113.121 (antibody, V domains shown)
VH: EVQLQQSGAELVKPGASVNLSCTASGFNIKDYYMHWMKQRPEQGLEWIGRIDPENGETRYAPKFQDKATITADTSSNTAYLQLRSLTSEDTAIYYCGRLDFYFDFWGQGTTLTVSS
VL: QIVLSQSPAILSASPGEKVTMTCRASSSVSYMHWYQQKPGSSPKPWIYATSNLASGVPARFSGSGSGTSYSLTISRVEAEDAATYYCQQWSSNPPTFGSGTKLEIK
B13: SC113.150 (antibody, V domains shown)
VH: B12 VH with N19K, M34L, A61G, D66G, T74A, F105Y
VL: B12 VL with K18R, S30N, M32I, V77M, E104A
B14: SC113.167 (antibody, V domains shown)
VH: B12 VH with N19K, M37V, E46Y, N55A, K63N, D66G, G97A, F105S
VL: B12 VL with A59G, A82T, S91F, S92T
B15: SC113.133 (antibody, V domains shown)
VH: QVQLQQSGAELVRPGSSVKISCKASGYAFSSSWINWVKQRPGQGLEWIGQIYPGDGDTNYNGKFKGKATLTADKSSNTAYLQLNSLTSEDSAVYFCARTPIFAYWGQGTLVTVSA
VL: B1 VL with S34T, T53I, A58V, I74T, S92A, Y96W

Numbering of substitutions follows the chain as printed.

T2 sequence (P41273 other isoform, or with tags, fused parts or gaps): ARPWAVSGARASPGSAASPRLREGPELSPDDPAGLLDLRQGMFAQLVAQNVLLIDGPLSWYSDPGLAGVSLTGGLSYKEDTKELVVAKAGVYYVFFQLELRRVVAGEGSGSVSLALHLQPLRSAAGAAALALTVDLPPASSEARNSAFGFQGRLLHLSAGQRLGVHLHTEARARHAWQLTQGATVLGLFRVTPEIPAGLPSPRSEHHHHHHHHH

The target in the first experiment is T1, cynomolgus TNFSF9 (cTNFSF9) protein, soluble recombinant (cynomolgus).
T1 construct: extracellular domain; also called cynomolgus TNFSF9 protein
The experiment can be described thus: SPR (Biacore).
As to B1, the Kd was 16 nM.
On the same count and under the same terms, in the case of B2 it was 12 nM.

Another experiment addresses T2, hTNFSF9-His (monomeric human TNFSF9 extracellular domain with 9x-Histidine tag) (human, UniProt P41273 50-254).
T2 construct: also called hTNFSF9-His protein; monomeric hTNFSF9-His antigen
The experiment can be described thus: SPR (Biacore).
B1 yielded a dissociation constant (Kd) of 4 nM.
The same measure, in the same setting: in the case of B2 it was 3 nM.

Another experiment has as its target T3, human TNFSF9 (hTNFSF9), full length, overexpressed on HEK293T cells (human, UniProt P41273 1-254). The experiment can be described thus: cell-based or functional assay.
B1: the “% live cells, Fab-saporin killing, 250 pM antibody” value (“% live cells, Fab-saporin killing” for short) was determined as 28.3%.
On the same count and under the same terms, in the case of B2 it was 17.8%.

The next experiment has as its target T4, cynomolgus TNFSF9 (cTNFSF9), full length, overexpressed on HEK293T cells (cynomolgus). The experiment can be described thus: cell-based or functional assay.
Consider B1, for which the “% live cells, Fab-saporin killing” value is 31.3%.
The same measure, in the same setting: in the case of B2 it was 102%.

The next experiment deals with T1, cynomolgus TNFSF9 (cTNFSF9) protein, …. The experiment can be described thus: SPR (Biacore). The source holds these as a separate data set.
Consider B3, for which the Kd was found to be 11 nM.
On the same count and under the same terms, in the case of B4 it was 81 nM; in that of B5, 4 nM.
With B6, the Kd amounted to 28 nM.

For another experiment, the target named is T2, hTNFSF9-His (monomeric human TNFSF9 …). The experiment can be described thus: SPR (Biacore). The source holds these as a separate data set.
Turning to B3, the Kd was found to be 6 nM.
Molecule B4 displayed a Kd of 11 nM.
As to B5, binding was put at a Kd of 5 nM.
On the same count and under the same terms, in the case of B6 it was 3 nM.

In the next experiment the target is T5, human TNFSF9 (R&D Systems; #2295-4L-025/CF) (human, UniProt P41273 71-254, limits assumed).
T5 construct: also called TNFSF9 (ligand); TNFSF9 ligand
T5 sequence (P41273 71-254 limits assumed): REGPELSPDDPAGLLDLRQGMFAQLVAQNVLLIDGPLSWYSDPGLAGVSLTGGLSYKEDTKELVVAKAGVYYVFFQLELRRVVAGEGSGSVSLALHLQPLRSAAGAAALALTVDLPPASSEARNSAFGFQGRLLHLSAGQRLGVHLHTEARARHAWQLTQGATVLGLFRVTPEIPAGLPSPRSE
The experiment can be described thus: MSD ELISA: TNFSF9 + 1 ug/mL antibody, binding to coated TNFRSF9.
For B4, the “% inhibition of ligand receptor interaction” value (from here on “% inhibition”) was 46%.
Consider B5, for which the “% inhibition” value is -35%.
Same read-out and setting: in the case of B7 it was -38%; in that of B2, 23%.
As to B8, the “% inhibition” value was -37%.
Turning to B9, the “% inhibition” value was -66%.
Same read-out and setting: in the case of B10 it was -84%.
For the molecule B11, the “% inhibition” value is -63%.

The next experiment concerns the target T5, human TNFSF9 (R&D Systems; …). The experiment is described as above. The source holds these as a separate data set.
For B3, the “% inhibition” value came to 48%.
B12: the “% inhibition” value worked out at 98%.
As for B13, the “% inhibition” value was 98%.
On to B14, for which the “% inhibition” value was determined as 89%.
On the same count and under the same terms, in the case of B15 it was 66%; in that of B6, 99%.

The next experiment concerns the target T3, human TNFSF9 (hTNFSF9), full length, …. The experiment can be described thus: cell-based or functional assay. This is another data set of the same source.
With B3, the “% live cells, Fab-saporin killing” value came out at 23%.
Still for that read-out and setting: in the case of B4 it was 95.1%; in that of B5, 11.6%.
For the molecule B6, the “% live cells, Fab-saporin killing” value came to 15.5%.

The target in a further experiment is T4, cynomolgus TNFSF9 (cTNFSF9), full …. The experiment can be described thus: cell-based or functional assay. This is another data set of the same source.
Take B3: the “% live cells, Fab-saporin killing” value was 29%.
In the case of B4, the “% live cells, Fab-saporin killing” value was found to be 101%.
For B5, the “% live cells, Fab-saporin killing” value is 9.3%.
For B6, the “% live cells, Fab-saporin killing” value was found to be 108%.
